{"source": "patent US20200085917A1", "assay_in_all_cases": "GST pull-down, LC-MS/MS", "key": {"[1]": {"target": "Sccpdh_IPI:IPI00153266.1 (mouse) (UniProt Q8R127)", "sequence (Q8R127 2-429 limits assumed)": "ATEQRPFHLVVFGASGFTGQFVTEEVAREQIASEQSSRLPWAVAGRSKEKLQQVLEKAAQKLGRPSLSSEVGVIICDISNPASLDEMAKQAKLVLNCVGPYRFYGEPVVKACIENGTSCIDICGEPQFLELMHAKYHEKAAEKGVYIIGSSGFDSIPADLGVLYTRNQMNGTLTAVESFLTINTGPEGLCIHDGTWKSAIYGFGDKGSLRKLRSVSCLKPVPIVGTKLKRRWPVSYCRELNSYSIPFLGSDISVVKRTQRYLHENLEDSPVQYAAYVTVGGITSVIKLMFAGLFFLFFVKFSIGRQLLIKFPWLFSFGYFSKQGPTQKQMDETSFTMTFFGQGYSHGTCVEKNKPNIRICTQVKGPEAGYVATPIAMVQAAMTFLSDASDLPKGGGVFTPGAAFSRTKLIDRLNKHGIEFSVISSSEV"}, "[2]": {"target": "Fabp5_IPI:IPI00114162.3 (mouse) (UniProt Q05816)"}, "[3]": {"target": "Iscu_IPI:IPI00110578.1 (mouse) (UniProt Q9D7P6)", "sequence (Q9D7P6 36-168 limits assumed)": "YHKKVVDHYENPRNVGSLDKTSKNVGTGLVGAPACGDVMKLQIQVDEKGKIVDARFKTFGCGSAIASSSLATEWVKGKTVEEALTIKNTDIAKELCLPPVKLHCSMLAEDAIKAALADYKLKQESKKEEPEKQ"}, "[4]": {"target": "Mtch1_IPI:IPI00137173.1 (mouse) (UniProt Q791T5)"}, "[5]": {"target": "Nsf_IPI:IPI00656325.2 (mouse) (UniProt P46460)", "sequence (P46460 whole entry)": "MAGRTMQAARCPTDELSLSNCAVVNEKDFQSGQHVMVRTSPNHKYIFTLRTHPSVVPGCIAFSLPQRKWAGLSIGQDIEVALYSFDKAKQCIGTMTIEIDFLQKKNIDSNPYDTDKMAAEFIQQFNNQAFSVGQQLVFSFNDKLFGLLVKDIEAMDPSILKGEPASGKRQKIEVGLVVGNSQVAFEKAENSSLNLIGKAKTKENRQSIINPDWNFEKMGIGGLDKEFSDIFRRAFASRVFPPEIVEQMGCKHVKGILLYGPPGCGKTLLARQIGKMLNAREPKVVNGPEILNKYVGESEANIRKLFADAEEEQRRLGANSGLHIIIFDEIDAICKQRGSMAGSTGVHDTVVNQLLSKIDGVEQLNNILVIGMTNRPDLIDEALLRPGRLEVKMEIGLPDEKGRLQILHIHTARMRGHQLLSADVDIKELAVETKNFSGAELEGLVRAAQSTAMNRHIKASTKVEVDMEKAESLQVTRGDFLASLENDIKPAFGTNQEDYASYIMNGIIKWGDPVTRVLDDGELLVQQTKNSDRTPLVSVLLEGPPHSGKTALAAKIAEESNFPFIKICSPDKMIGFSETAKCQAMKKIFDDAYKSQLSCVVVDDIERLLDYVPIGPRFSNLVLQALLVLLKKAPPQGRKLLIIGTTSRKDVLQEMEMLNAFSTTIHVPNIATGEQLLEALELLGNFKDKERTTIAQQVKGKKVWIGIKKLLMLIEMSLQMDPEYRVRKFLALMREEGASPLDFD"}, "[6]": {"target": "Rab2a_IPI:IPI00137227.1 (mouse) (UniProt P53994)", "sequence (P53994 2-212 limits assumed)": "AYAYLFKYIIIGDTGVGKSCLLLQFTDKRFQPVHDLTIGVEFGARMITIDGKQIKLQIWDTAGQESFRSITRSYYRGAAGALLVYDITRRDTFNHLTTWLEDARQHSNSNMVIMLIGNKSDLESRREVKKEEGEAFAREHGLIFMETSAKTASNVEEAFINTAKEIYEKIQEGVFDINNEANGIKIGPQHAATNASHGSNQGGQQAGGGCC"}, "[7]": {"target": "Slc25a27_IPI:IPI00108998.1 (mouse) (UniProt Q9D6D0)"}, "[8]": {"target": "Isca2_IPI:IPI00120671.2 (mouse) (UniProt Q9DCB8)", "sequence (Q9DCB8 9-154 limits assumed)": "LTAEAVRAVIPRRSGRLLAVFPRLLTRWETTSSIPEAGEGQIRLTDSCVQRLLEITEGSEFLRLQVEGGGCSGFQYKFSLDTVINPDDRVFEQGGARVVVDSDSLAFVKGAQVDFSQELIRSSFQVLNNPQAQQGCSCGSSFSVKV"}, "[9]": {"target": "Slc25a10_IPI:IPI00317074.3 (mouse) (UniProt Q9QZD8)"}, "[10]": {"target": "Mrpl43_IPI:IPI00278781.1 (mouse) (UniProt Q99N89)", "sequence (Q99N89 whole entry)": "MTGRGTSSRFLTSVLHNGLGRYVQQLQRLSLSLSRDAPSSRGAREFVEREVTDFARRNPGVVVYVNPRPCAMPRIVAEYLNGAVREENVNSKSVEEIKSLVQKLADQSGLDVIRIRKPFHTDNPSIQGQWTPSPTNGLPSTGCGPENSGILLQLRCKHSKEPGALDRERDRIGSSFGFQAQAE"}, "[11]": {"target": "Atp1a1_IPI:IPI00311682.5 (mouse) (UniProt Q8VDN2)"}, "[12]": {"target": "Cyc1_IPI:IPI00132728.2 (mouse) (UniProt Q9D0M3)", "sequence (Q9D0M3 85-325 limits assumed)": "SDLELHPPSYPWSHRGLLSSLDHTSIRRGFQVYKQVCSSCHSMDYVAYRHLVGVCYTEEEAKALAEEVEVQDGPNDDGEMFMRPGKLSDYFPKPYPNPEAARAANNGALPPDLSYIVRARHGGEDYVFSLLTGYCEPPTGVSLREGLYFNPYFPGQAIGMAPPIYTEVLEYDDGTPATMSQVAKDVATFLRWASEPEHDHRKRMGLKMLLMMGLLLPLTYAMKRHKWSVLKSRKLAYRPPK"}, "[13]": {"target": "Rab5b_IPI:IPI00116563.2 (mouse) (UniProt P61021)", "sequence (P61021 2-215 limits assumed)": "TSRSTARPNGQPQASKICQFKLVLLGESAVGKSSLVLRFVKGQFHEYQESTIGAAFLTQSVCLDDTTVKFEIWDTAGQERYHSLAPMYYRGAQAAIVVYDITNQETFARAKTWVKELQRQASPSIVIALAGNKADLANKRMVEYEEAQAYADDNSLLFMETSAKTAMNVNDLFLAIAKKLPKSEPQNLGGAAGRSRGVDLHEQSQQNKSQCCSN"}, "[14]": {"target": "Slc25a19_IPI:IPI00118826.1 (mouse) (UniProt Q9DAM5)", "sequence (Q9DAM5 whole entry)": "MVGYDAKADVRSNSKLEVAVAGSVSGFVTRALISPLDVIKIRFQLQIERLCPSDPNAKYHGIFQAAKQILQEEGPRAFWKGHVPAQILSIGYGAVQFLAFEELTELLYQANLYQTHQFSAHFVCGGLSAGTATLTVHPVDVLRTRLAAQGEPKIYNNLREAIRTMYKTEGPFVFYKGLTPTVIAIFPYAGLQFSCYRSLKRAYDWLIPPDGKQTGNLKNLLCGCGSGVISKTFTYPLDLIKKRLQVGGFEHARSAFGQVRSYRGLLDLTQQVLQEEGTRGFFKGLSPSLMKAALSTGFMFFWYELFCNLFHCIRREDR"}, "[15]": {"target": "Cplx1_IPI:IPI00132278.1 (mouse) (UniProt P63040)", "sequence (P63040 whole entry)": "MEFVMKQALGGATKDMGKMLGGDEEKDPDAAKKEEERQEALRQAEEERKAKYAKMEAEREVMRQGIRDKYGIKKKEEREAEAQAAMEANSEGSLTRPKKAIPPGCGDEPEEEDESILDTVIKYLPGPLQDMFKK"}, "[16]": {"target": "Coq5_IPI:IPI00379695.2 (mouse) (UniProt Q9CXI0)", "sequence (Q9CXI0 50-327 limits assumed)": "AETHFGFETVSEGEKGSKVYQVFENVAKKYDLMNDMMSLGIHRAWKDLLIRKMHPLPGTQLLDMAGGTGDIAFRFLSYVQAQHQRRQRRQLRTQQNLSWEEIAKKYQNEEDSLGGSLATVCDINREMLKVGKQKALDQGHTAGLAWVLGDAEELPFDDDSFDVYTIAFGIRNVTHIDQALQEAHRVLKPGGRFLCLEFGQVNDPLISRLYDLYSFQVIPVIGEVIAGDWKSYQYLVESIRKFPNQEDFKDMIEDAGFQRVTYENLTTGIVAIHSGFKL"}, "[17]": {"target": "Ppt1_IPI:IPI00331318.2 (mouse) (UniProt O88531)", "sequence (O88531 28-306 limits assumed)": "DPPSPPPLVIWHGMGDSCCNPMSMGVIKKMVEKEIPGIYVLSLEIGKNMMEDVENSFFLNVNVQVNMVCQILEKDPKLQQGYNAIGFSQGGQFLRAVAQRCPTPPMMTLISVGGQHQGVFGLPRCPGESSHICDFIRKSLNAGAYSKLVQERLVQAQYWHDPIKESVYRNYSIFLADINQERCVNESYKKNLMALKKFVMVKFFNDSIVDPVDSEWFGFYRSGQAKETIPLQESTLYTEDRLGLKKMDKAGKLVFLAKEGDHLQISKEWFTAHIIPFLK"}, "[18]": {"target": "Dsp_IPI:IPI00553419.3 (mouse) (UniProt E9Q557)"}, "[19]": {"target": "Hspa5_IPI:IPI00319992.1 (mouse) (UniProt P20029)"}, "[20]": {"target": "Dci_IPI:IPI00114416.1 (mouse) (UniProt P42125)", "sequence (P42125 29-289 limits assumed)": "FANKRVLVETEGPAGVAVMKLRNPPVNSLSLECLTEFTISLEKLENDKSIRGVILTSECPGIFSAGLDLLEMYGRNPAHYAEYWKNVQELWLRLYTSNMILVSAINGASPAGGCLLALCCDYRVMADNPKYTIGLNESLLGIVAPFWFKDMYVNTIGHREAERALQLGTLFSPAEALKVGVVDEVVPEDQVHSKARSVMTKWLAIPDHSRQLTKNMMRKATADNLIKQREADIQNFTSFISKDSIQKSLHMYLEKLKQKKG"}, "[21]": {"target": "Actg1_IPI:IPI00136929.1 (mouse) (UniProt P63260)"}, "[22]": {"target": "Hsd17b10_IPI:IPI00320847.1 (mouse) (UniProt O08756)"}, "[23]": {"target": "Coq3_IPI:IPI00467124.2 (mouse) (UniProt Q8BMS4)", "sequence (Q8BMS4 87-370 limits assumed)": "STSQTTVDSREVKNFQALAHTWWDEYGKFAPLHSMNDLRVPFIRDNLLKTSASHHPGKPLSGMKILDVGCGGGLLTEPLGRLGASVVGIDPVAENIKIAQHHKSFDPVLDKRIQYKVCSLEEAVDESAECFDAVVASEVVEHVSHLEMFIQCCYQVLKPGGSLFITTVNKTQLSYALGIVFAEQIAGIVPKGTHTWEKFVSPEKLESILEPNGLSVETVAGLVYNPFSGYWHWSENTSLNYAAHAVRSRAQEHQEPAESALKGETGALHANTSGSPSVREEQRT"}, "[24]": {"target": "Uqcrb_IPI:IPI00132347.1 (mouse) (UniProt Q9D855)", "sequence (Q9D855 2-111 limits assumed)": "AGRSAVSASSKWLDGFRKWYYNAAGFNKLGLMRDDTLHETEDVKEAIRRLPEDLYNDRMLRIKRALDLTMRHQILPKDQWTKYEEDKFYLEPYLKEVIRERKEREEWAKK"}, "[25]": {"target": "Agk_IPI:IPI00113606.2 (mouse) (UniProt Q9ESW4)"}, "[26]": {"target": "2900010M23Rik_IPI:IPI00133350.1 (mouse)", "sequence (Q9CQY6 whole entry)": "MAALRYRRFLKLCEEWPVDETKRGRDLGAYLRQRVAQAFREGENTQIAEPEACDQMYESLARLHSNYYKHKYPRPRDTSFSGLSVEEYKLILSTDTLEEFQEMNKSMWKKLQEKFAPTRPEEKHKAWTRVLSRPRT"}, "[27]": {"target": "Nubpl_IPI:IPI00317709.1 (mouse) (UniProt Q9CWD8)"}, "[28]": {"target": "Oxa1l_IPI:IPI00308001.1 (mouse) (UniProt Q8BGA9)"}, "[29]": {"target": "Gstk1_IPI:IPI00121051.3 (mouse) (UniProt Q9DCM2)", "sequence (Q9DCM2 whole entry)": "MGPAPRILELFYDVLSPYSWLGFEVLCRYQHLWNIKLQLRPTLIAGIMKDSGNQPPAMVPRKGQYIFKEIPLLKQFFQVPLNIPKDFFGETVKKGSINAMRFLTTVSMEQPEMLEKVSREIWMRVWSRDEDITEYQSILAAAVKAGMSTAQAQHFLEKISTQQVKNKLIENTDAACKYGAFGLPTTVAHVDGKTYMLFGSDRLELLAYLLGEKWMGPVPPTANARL"}, "[30]": {"target": "Gm561_IPI:IPI00344567.1 (mouse)"}, "[31]": {"target": "Dsg1c_IPI:IPI00331259.3 (mouse) (UniProt Q7TSF0)"}, "[32]": {"target": "Ndufa11_IPI:IPI00318645.6 (mouse) (UniProt Q9D8B4)", "sequence (Q9D8B4 whole entry)": "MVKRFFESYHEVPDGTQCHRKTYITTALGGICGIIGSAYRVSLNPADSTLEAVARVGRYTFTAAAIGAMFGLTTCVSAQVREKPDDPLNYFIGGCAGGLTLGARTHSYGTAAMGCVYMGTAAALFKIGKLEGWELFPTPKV"}, "[33]": {"target": "Hint2_IPI:IPI00133034.3 (mouse) (UniProt Q9D0S9)", "sequence (Q9D0S9 18-163 limits assumed)": "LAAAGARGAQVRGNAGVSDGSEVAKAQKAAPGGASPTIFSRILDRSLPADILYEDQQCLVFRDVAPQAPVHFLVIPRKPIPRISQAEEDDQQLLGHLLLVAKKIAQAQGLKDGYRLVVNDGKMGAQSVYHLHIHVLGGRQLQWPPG"}}}
{"substance": "GST-Httex1-97Q (from UniProt P08515 1-218; P42858 1-88)", "values": [{"measurement": "No. of total peptides", "setting": "[1]", "result": 1, "unit": "peptides"}, {"measurement": "No. of unique peptides", "setting": "[1]", "result": 1, "unit": "peptides"}, {"measurement": "No. of total peptides", "setting": "[2]", "result": 1, "unit": "peptides"}, {"measurement": "No. of unique peptides", "setting": "[2]", "result": 1, "unit": "peptides"}, {"measurement": "No. of total peptides", "setting": "[3]", "result": 2, "unit": "peptides"}, {"measurement": "No. of unique peptides", "setting": "[3]", "result": 2, "unit": "peptides"}, {"measurement": "No. of total peptides", "setting": "[4]", "result": 3, "unit": "peptides"}, {"measurement": "No. of unique peptides", "setting": "[4]", "result": 3, "unit": "peptides"}, {"measurement": "No. of total peptides", "setting": "[5]", "result": 1, "unit": "peptides"}, {"measurement": "No. of unique peptides", "setting": "[5]", "result": 1, "unit": "peptides"}, {"measurement": "No. of total peptides", "setting": "[6]", "result": 1, "unit": "peptides"}, {"measurement": "No. of unique peptides", "setting": "[6]", "result": 1, "unit": "peptides"}, {"measurement": "No. of total peptides", "setting": "[7]", "result": 2, "unit": "peptides"}, {"measurement": "No. of unique peptides", "setting": "[7]", "result": 2, "unit": "peptides"}, {"measurement": "No. of total peptides", "setting": "[8]", "result": 3, "unit": "peptides"}, {"measurement": "No. of unique peptides", "setting": "[8]", "result": 3, "unit": "peptides"}, {"measurement": "No. of total peptides", "setting": "[9]", "result": 1, "unit": "peptides"}, {"measurement": "No. of unique peptides", "setting": "[9]", "result": 1, "unit": "peptides"}, {"measurement": "No. of total peptides", "setting": "[10]", "result": 1, "unit": "peptides"}, {"measurement": "No. of unique peptides", "setting": "[10]", "result": 1, "unit": "peptides"}, {"measurement": "No. of total peptides", "setting": "[11]", "result": 1, "unit": "peptides"}, {"measurement": "No. of unique peptides", "setting": "[11]", "result": 1, "unit": "peptides"}, {"measurement": "No. of total peptides", "setting": "[12]", "result": 1, "unit": "peptides"}, {"measurement": "No. of unique peptides", "setting": "[12]", "result": 1, "unit": "peptides"}, {"measurement": "No. of total peptides", "setting": "[13]", "result": 1, "unit": "peptides"}, {"measurement": "No. of unique peptides", "setting": "[13]", "result": 1, "unit": "peptides"}, {"measurement": "No. of total peptides", "setting": "[14]", "result": 1, "unit": "peptides"}, {"measurement": "No. of unique peptides", "setting": "[14]", "result": 1, "unit": "peptides"}, {"measurement": "No. of total peptides", "setting": "[15]", "result": 6, "unit": "peptides"}, {"measurement": "No. of unique peptides", "setting": "[15]", "result": 4, "unit": "peptides"}, {"measurement": "No. of total peptides", "setting": "[16]", "result": 2, "unit": "peptides"}, {"measurement": "No. of unique peptides", "setting": "[16]", "result": 2, "unit": "peptides"}, {"measurement": "No. of total peptides", "setting": "[17]", "result": 1, "unit": "peptides"}, {"measurement": "No. of unique peptides", "setting": "[17]", "result": 1, "unit": "peptides"}, {"measurement": "No. of total peptides", "setting": "[18]", "result": 4, "unit": "peptides"}, {"measurement": "No. of unique peptides", "setting": "[18]", "result": 4, "unit": "peptides"}, {"measurement": "No. of total peptides", "setting": "[19]", "result": 1, "unit": "peptides"}, {"measurement": "No. of unique peptides", "setting": "[19]", "result": 1, "unit": "peptides"}, {"measurement": "No. of total peptides", "setting": "[20]", "result": 7, "unit": "peptides"}, {"measurement": "No. of unique peptides", "setting": "[20]", "result": 6, "unit": "peptides"}, {"measurement": "No. of total peptides", "setting": "[21]", "result": 1, "unit": "peptides"}, {"measurement": "No. of unique peptides", "setting": "[21]", "result": 1, "unit": "peptides"}, {"measurement": "No. of total peptides", "setting": "[22]", "result": 1, "unit": "peptides"}, {"measurement": "No. of unique peptides", "setting": "[22]", "result": 1, "unit": "peptides"}, {"measurement": "No. of total peptides", "setting": "[23]", "result": 2, "unit": "peptides"}, {"measurement": "No. of unique peptides", "setting": "[23]", "result": 1, "unit": "peptides"}, {"measurement": "No. of total peptides", "setting": "[24]", "result": 1, "unit": "peptides"}, {"measurement": "No. of unique peptides", "setting": "[24]", "result": 1, "unit": "peptides"}, {"measurement": "No. of total peptides", "setting": "[25]", "result": 1, "unit": "peptides"}, {"measurement": "No. of unique peptides", "setting": "[25]", "result": 1, "unit": "peptides"}, {"measurement": "No. of total peptides", "setting": "[26]", "result": 1, "unit": "peptides"}, {"measurement": "No. of unique peptides", "setting": "[26]", "result": 1, "unit": "peptides"}, {"measurement": "No. of total peptides", "setting": "[27]", "result": 1, "unit": "peptides"}, {"measurement": "No. of unique peptides", "setting": "[27]", "result": 1, "unit": "peptides"}, {"measurement": "No. of total peptides", "setting": "[28]", "result": 1, "unit": "peptides"}, {"measurement": "No. of unique peptides", "setting": "[28]", "result": 1, "unit": "peptides"}, {"measurement": "No. of total peptides", "setting": "[29]", "result": 1, "unit": "peptides"}, {"measurement": "No. of unique peptides", "setting": "[29]", "result": 1, "unit": "peptides"}, {"measurement": "No. of total peptides", "setting": "[30]", "result": 2, "unit": "peptides"}, {"measurement": "No. of unique peptides", "setting": "[30]", "result": 2, "unit": "peptides"}, {"measurement": "No. of total peptides", "setting": "[31]", "result": 1, "unit": "peptides"}, {"measurement": "No. of unique peptides", "setting": "[31]", "result": 1, "unit": "peptides"}, {"measurement": "No. of total peptides", "setting": "[32]", "result": 1, "unit": "peptides"}, {"measurement": "No. of unique peptides", "setting": "[32]", "result": 1, "unit": "peptides"}, {"measurement": "No. of total peptides", "setting": "[33]", "result": 1, "unit": "peptides"}, {"measurement": "No. of unique peptides", "setting": "[33]", "result": 1, "unit": "peptides"}]}
